Source: patent EP4790144A1 (Peking Union Medical College Hospital, dated 2026)

B1: 07PC09 (antibody, V domains shown)
VH: IVMLVESGGGLVKPGGSLKLSCVASGFTFSTYAMSWIRQTPEKRLAWVATISSGGSSTYYSDSVKGRFTISRDNAKNTLYLQMSSLRSEDTAMYYCARHGDWDGSLAYWGQGTQVTVSA
VL: DIVMTQSHKLMSTSVGDRVNITCKASQDVNAAVAWYQQQPGQSPKLLFYWASTRHTGVPDRFTGSGSRTDYTLTISGVQAEDLALYYCQQHYSAPRTFGGGTKLEVK
B2: 07TE02 (antibody, V domains shown)
VH: DVKLVESGGGLVKPGGSLKLSCAASGLTFSIYAMSWVRQTPEKRLEWVATISAGDIYPYYSDSVKGRFAISRDNAKNTLYLQMSSLRSEDTAIYYCTSITMAMAYWGQGTLVTVSA
VL: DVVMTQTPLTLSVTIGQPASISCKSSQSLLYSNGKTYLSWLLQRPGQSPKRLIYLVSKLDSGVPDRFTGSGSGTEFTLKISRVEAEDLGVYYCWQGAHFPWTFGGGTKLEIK
B3: 07TE08 (antibody, V domains shown)
VH: DVKLVESGGGLVKPGGSLKLSCAASGFTFSIYAMSWVRQTPEKRLEWVATISAGDIYPYYSDSVKGRFAISRDNAKNTLFLQMSSLRSEDTAIYYCTSITMAMAYWGQGTLVTVSA
VL: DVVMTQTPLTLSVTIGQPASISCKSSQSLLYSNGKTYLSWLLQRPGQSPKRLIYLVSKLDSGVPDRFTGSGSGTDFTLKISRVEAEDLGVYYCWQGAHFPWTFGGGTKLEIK
B4: 07TE04 (antibody, V domains shown)
VH: QVQLQQSGAELVKPGASVKLSCKASGYTFTRYYLYWVKQRPGQGLEWIGKINPTNGVADLNEKFKYKATLTVDKSSSTTHMQLSSLTSEDSAVYYCTRVYYKYDGFAYWGQGTLVTVSA
VL: DIVMTQSLKFMSTSVGDRVSIICKASQDVGTAVAWYQQKPAQSPKLLIYWASTRHTGVPDRFTGSGSGTDFTLTISNVQSEDLTDYFCQQYSSYPLTFGGGTKLEIK
B5: 07PC08 (antibody, V domains shown)
VH: EVKLEESGGGLVQPGGSMKLSCGASGFTFSDAWMDWVRQSPEKGLEWVAEIRSKAINHATYYAESVKGRFTISRDDSKSSVYLQMNSLRAEDTGIYYCTRRVDWYFDVWGAGTTVTVSS
VL: DILLTQSPAILSVSPGERVSFSCRASQSIGTSIYWYQQRTNGSPRLLIKYASESISGIPSRFSGSGSGTDFTLSINSVESEDIADYYCQQSNSWPLTFGAGTKLELK
B6: 07PC17 (antibody, V domains shown)
VH: QLQLVQSGPEVKKPGETVKISCKASGYAFTNYGMNWVKQAPGKDLKWMGWINTYTGDPVYGDDFKGRFAFSLDTSASTAYLQINNLKNEDTATYFCVREPIYYGWVDYWGQGTSVTVSS
VL: DIVMTQAAPSVPVTPGESASISCRSSKSLLHRNGNTYLYWFLQRPGQSPQVLIYRMSNLASGVPDRFSGSGSGTAFTLRISRVEAEDVGVYYCMQHLEYPYTFGGGTKLEIK
B7: 07PC28 (antibody, V domains shown)
VH: QIQLVQSGPELKKPGETVKISCKTSGYTFTDFGMNWVKRAPGQDLKWMGWINTYTGATTYGDEFKGRFAFSLETSASTASLQINNLKNEDSATYFCVREPLYYGWVDYWGQGTSVIVSS
VL: DIVMTQVAPSVPVTPGESVSISCRSSKSLLHRNGNTYLYWFLQRPGQSPQVLIYRMSNLASGVPDRFSGSGSGTAFTLRISRVEAEDVGVYYCMQHLEYPYTFGGGTKLEIK
B8: 07PC27 (antibody, V domains shown)
VH: QLQLVQSGPELKKPGETVKISCKASGYAFTNYGMNWVKQTPGKGLKWMGWINTYSGETTYGDDFKGRFAFSLETSASTAYLQINSLKNEDTATYFCVREPIYYGWVDYWGQGTSVTVSS
VL: DIVMTQAAPSVPVTPGESVSISCRSSKSLLHRNGNTYLYWFLQRPGQSPQVLIYRMSNLASGVPDRFSGSGSGTAFTLRISRVEAEDVGVYYCMQHLEYPYTFGGGTKLEIK
B9: 07PC03 (antibody, V domains shown)
VH: QLQLVQSGPEVKKPGETVKISCKASGYAFTNYGMNWVKQAPGKDLKWMGWIKTYTGDSVYGDDFKGRFAFSLDTSASTAYLQINDLKNEDTATYFCVREPIYYGWVDYWGQGTSVTVSS
VL: DIVMTQAAPSVPVTPGESASISCRSSKSLLHRNGNTYLYWFLQRPGQSPQVLIYRMSNLASGVPDRFSGSGSGTAFTLRISRVEAEDVGVYYCMQHLEYPYTFGGGTKLEIK

Molecular target: T1, 2023-601 project-ABCD1 protein (human, UniProt P33897 650-745)
T1 construct: also called antigen protein ABCD1
T1 sequence: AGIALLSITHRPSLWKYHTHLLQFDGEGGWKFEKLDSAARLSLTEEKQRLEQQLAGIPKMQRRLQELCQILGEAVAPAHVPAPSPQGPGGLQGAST
Assay: ELISA, ABCD1 protein coated at 2 ug/mL, HRP goat anti-mouse secondary antibody

Q: Does B1 bind?
A: Result: binds

Q: Does B2 bind?
A: Result: binds

Q: Does B3 bind?
A: Result: binds

Q: Does B4 bind?
A: Result: binds

Q: Does B5 bind?
A: Result: binds

Q: Does B6 bind?
A: Result: binds

Q: Does B7 bind?
A: Result: binds

Q: Does B8 bind?
A: Result: binds

Q: Does B9 bind?
A: Result: binds
